In this experiment the target is transducin (Homo sapiens, UniProt P11488). Nature of the experiment: GTPyS uptake assay: effect of BR-rhodopsin loop 3 chimeras on GDP-GTP exchange on transducin. In kind it is biochemical. The method, then: The ability of the chimeric protein to promote GTP-GDP exchange was evaluated for each of three BR-rhodopsin loop 3 chimeras by evaluating the effect of the chimera on the rate of GDP-GTP exchange on transducin using a GTPyS uptake assay, as described below.
Chimeric or bacteriorhodopsin protein (1.7 uM) was incubated with 0.8 uM holotransducin with 10 nM ^35S radiolabeled GTPyS in buffer (20 mM Hepes (pH 7.5), 5 mM MgCl2, 1 mM DTT, 0.1 mM EDTA, and 20 mM NaCl). The reaction was incubated at 30° C. for 5, 10, 15 or 30 minutes. The reaction was terminated by transferring aliquots of the reaction mixture to nitrocellulose filters (0.45 um) prewetted with wash buffer (10 mM Tris (pH 7.5), 5 mM MgCl2, 100 mM NaC1, 0.1 mM EDTA) and placed on a vacuum manifold. The filters were then washed with 8 ml of wash buffer. The filters were then placed overnight in scintillation vials filled with 20 ml of scintillation cocktail. The activity of the vials was counted by a Liquid Scintillation Counter. For the BR-Rhodopsin loop 3 chimeras, in which the rhodopsin intracellular loop 3 replaced the native BR intracellular loop 3 and was fused from T157 on BR TM 5 to V167 on BR TM 6, activity was determined by an increased uptake of GTPS over basal exchange by transducin alone.
A time course study was next performed for Rhodopsin Insert Y223 to M253 (3C)
The following experiments repeated the study of GTPγS exchange with a new culture of the BR-Rhodopsin chimera for Rhodopsin Insert Y223 (3C) as well as three new chimeras.

Where [1] appears, read: 10 Minutes, new culture of 3C and three new chimeras.

Sequence of transducin (P11488 2-350 limits assumed): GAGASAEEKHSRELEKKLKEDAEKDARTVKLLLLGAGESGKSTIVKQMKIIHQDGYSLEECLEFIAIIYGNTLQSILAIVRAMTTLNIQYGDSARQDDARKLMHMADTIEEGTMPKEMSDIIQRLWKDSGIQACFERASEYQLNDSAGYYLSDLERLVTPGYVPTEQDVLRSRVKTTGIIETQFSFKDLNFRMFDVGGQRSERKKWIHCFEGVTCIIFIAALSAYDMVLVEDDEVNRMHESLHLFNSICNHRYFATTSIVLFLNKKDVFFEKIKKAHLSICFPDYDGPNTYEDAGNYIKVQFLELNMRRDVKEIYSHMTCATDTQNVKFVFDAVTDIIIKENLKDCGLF
Sequence of transducin (P62873 2-340 partner limits assumed): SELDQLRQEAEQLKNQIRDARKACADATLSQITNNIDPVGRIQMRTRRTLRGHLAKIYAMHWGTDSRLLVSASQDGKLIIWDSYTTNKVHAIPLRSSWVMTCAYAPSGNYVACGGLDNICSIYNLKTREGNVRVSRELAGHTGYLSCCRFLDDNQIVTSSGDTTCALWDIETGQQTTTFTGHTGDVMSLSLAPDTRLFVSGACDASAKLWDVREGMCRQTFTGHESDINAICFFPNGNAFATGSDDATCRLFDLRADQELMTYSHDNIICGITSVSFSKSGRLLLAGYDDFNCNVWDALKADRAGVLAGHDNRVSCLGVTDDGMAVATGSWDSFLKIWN
Sequence of transducin (P63211 2-71 partner limits assumed): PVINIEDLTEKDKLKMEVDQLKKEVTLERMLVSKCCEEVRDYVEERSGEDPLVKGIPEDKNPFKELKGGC

B1: 3E: bacteriorhodopsin chimera, loop 3 replaced by bovine rhodopsin G224-M253; loop amino acid sequence SEQ ID NO:34 (protein)
chain: QAQITGRPEWIWLALGTALMGLGTLYFLVKGMGVSDPDAKKFYAITTLVPAIAFTMYLSMLLGYGLTMVPFGGEQNPIYWARYADWLFTTPLLLLDLALLVDADQGTILALVGADGIMIGTGLVGALTKVYSYRFVWWAISTAAMLYILYVLFFGFTGQLVFTVKEAAAQQQESATTQKAEKEVTRMVASTFKVLRNVTVVLWSAYPVVWLIGSEGAGIVPLNIETLLFMVLDVSAKVGFGLILLRSRAIFGEAEAPEPSAGDGAAATSD
With B1, the “Activation (×100%) Over Basal Exchange” value under setting [1] is reported as 1.46 ×100%.

B2: 3C: bacteriorhodopsin chimera, loop 3 replaced by bovine rhodopsin Y223-M253; loop amino acid sequence SEQ ID NO:30 (protein)
chain: QAQITGRPEWIWLALGTALMGLGTLYFLVKGMGVSDPDAKKFYAITTLVPAIAFTMYLSMLLGYGLTMVPFGGEQNPIYWARYADWLFTTPLLLLDLALLVDADQGTILALVGADGIMIGTGLVGALTKVYSYRFVWWAISTAAMLYILYVLFFGFTYGQLVFTVKEAAAQQQESATTQKAEKEVTRMVASTFKVLRNVTVVLWSAYPVVWLIGSEGAGIVPLNIETLLFMVLDVSAKVGFGLILLRSRAIFGEAEAPEPSAGDGAAATSD
As to B2, the “Activation (3C) (×10°) over Basal Exchange” value (100 μM GDP, 10 Minutes) is reported as 1.67 ×10°. In addition, the “Activation by 3C (×100%) Over Basal Exchange” value by setting is: (5 Minutes) 1.56 ×100%; (10 Minutes) 1.95 ×100%; (15 Minutes) 1.97 ×100%. Further, the “Specific counts (Lattice Form)” value was found to be 12577 counts (10 Minutes, 100 uM GDP); 77125 counts under setting [1]; 51423 counts (10 Minutes, no peptide (8 uM peptide experiment)); 26273 counts (time course, 5 min); 51423 counts (time course, 10 min); 66566 counts (time course, 15 min). Moreover, the “Activation (×100%) Over Basal Exchange” value under setting [1] is recorded as 1.44 ×100%. The “SPECIFIC COUNTS: (Lattice Form)” value (10 Minutes, no peptide (50 uM peptide experiment)) was found to be 93448 counts.

B3: 3B: bacteriorhodopsin chimera, loop 3 replaced by bovine rhodopsin Y223-T251; loop amino acid sequence SEQ ID NO:28 (protein)
chain: QAQITGRPEWIWLALGTALMGLGTLYFLVKGMGVSDPDAKKFYAITTLVPAIAFTMYLSMLLGYGLTMVPFGGEQNPIYWARYADWLFTTPLLLLDLALLVDADQGTILALVGADGIMIGTGLVGALTKVYSYRFVWWAISTAAMLYILYVLFFGFTYGQLVFTVKEAAAQQQESATTQKAEKEVTVASTFKVLRNVTVVLWSAYPVVWLIGSEGAGIVPLNIETLLFMVLDVSAKVGFGLILLRSRAIFGEAEAPEPSAGDGAAATSD
B3: the “Activation (×100%) Over Basal Exchange” value under setting [1] is recorded as 1.17 ×100%.

B4: 3D: bacteriorhodopsin chimera, loop 3 replaced by bovine rhodopsin Q225-T251; loop amino acid sequence SEQ ID NO:32 (protein)
chain: QAQITGRPEWIWLALGTALMGLGTLYFLVKGMGVSDPDAKKFYAITTLVPAIAFTMYLSMLLGYGLTMVPFGGEQNPIYWARYADWLFTTPLLLLDLALLVDADQGTILALVGADGIMIGTGLVGALTKVYSYRFVWWAISTAAMLYILYVLFFGFTQLVFTVKEAAAQQQESATTQKAEKEVTVASTFKVLRNVTVVLWSAYPVVWLIGSEGAGIVPLNIETLLFMVLDVSAKVGFGLILLRSRAIFGEAEAPEPSAGDGAAATSD
On to B4, for which the “Activation (×100%) Over Basal Exchange” value under setting [1] was 1.0 ×100%.

For the origin of these results see patent US20040248202A1, “Bacteriorhodopsin/G protein-coupled receptor chimeras” (Wisconsin Alumni Research Foundation, priority 1998, published 2004).
